Ends that are not written are not given here.
Legend:
[1] = target: T1, human insulin-like growth factor-1 (mature, recombinant native IGF-1, Peprotech Cat.#100-11) (human, UniProt P05019 49-118); assay: ELISA, clone culture supernatant
T1 construct: In SPR it was the analyte in solution; also called native recombinant IGF-1; human IGF-1

[2] = target: T2, Thermus thermophilus wild type SlyD polypeptide (Thermus thermophilus); assay: ELISA, clone culture supernatant
T2 construct: Used as negative control; also called wild-type Thermus thermophilus SlyD; Thermus thermophilus-SlyD
T2 chain: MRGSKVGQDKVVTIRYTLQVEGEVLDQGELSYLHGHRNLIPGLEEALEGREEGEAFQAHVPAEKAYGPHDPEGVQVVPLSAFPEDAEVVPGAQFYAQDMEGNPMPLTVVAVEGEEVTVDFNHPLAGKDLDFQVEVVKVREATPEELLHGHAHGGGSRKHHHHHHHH

[3] = target: T3, SEQ ID NO 46 (human, also: covalently linked to cellulose); assay: CelluSpots peptide array, chemiluminescence
T3 construct: Spot on the CelluSpots peptide array; also called G-N-K-P-T-G-Y-G-S-S-S-R-R-A-P
T3 peptide: GNKPTGYGSSSRRAP
Experimental: (§1) Each peptide synthesized was shifted by one amino acid, i.e. it had 14 amino acids overlap with the previous and the following peptide, respectively. For preparation of the peptide arrays the Intavis CelluSpots™ technology was employed. In this approach, peptides are synthesized with an automated synthesizer (Intavis MultiPep RS) on modified cellulose disks which are dissolved after synthesis. The solutions of individual peptides covalently linked to macromolecular cellulose are then spotted onto coated microscope slides. The CelluSpots™ synthesis was carried out stepwise utilizing 9-fluorenylmethoxycarbonyl (Fmoc) chemistry on amino-modified cellulose disks in a 384-well synthesis plate. In each coupling cycle, the corresponding amino acids were activated with a solution of DIC/HOBt in DMF. Between coupling steps un-reacted amino groups were capped with a mixture of acetic anhydride, diisopropylethyl amine and 1-hydroxybenzotriazole. Upon completion of the synthesis, the cellulose disks were transferred to a 96-well plate and treated with a mixture of trifluoroacetic acid (TFA), dichloromethane, triisoproylsilane (TIS) and water for side chain deprotection. After removal of the cleavage solution, the cellulose bound peptides are dissolved with a mixture of TFA, TFMSA, TIS and water, precipitated with diisopropyl ether and re-suspended in DMSO. The peptide solutions were subsequently spotted onto Intavis CelluSpots™ slides using an Intavis slide spotting robot.
(§2) For epitope analysis, the slides prepared as described above were washed with ethanol and then with Tris-buffered saline (TBS; 50 mM Tris, 137 mM NaCl, 2.7 mM KCl, pH 8) before blocking for 16 h at 4° C. with 5 mL 10× Western Blocking Reagent (Roche Applied Science), 2.5 g sucrose in TBS, 0.1% Tween 20. The slide was washed with TBS and 0.1% Tween 20 and incubated afterward with 1 µg/mL of the corresponding IGF1 antibodies in TBS and 0.1% Tween 20 at ambient temperature for 2 h and subsequently washed with TBS+0.1% Tween 20. For detection, the slide was incubated with anti-rabbit/anti-mouse secondary HRP-antibody (1:20000 in TBS-T) followed by incubation with chemiluminescence substrate luminol and visualized with a Lumilmager (Roche Applied Science). ELISA-positive SPOTs were quantified and through assignment of the corresponding peptide sequences the antibody binding epitopes were identified.

[4] = target: T4, SEQ ID NO 45 (human, also: covalently linked to cellulose); assay: CelluSpots peptide array, chemiluminescence
T4 construct: Spot on the CelluSpots peptide array; also called F-G-N-K-P-T-G-Y-G-S-S-S-R-R-A
T4 peptide: FGNKPTGYGSSSRRA
Experimental: as §1, §2

[5] = target: T5, SEQ ID NO 49 (human, also: covalently linked to cellulose); assay: CelluSpots peptide array, chemiluminescence
T5 construct: Spot on the CelluSpots peptide array; also called P-T-G-Y-G-S-S-S-R-R-A-P-Q-T-G
T5 peptide: PTGYGSSSRRAPQTG
Experimental: as §1, §2

[6] = target: T6, SEQ ID NO 47 (human, also: covalently linked to cellulose); assay: CelluSpots peptide array, chemiluminescence
T6 construct: Spot on the CelluSpots peptide array; also called N-K-P-T-G-Y-G-S-S-S-R-R-A-P-Q
T6 peptide: NKPTGYGSSSRRAPQ
Experimental: as §1, §2

[7] = target: T7, SEQ ID NO 50 (human, also: covalently linked to cellulose); assay: CelluSpots peptide array, chemiluminescence
T7 construct: Spot on the CelluSpots peptide array; also called T-G-Y-G-S-S-S-R-R-A-P-Q-T-G-G
T7 peptide: TGYGSSSRRAPQTGG
Experimental: as §1, §2

[8] = target: T8, SEQ ID NO 44 (human, also: covalently linked to cellulose); assay: CelluSpots peptide array, chemiluminescence
T8 construct: Spot on the CelluSpots peptide array; also called Y-F-G-N-K-P-T-G-Y-G-S-S-S-R-R
T8 peptide: YFGNKPTGYGSSSRR
Experimental: as §1, §2

[9] = target: T9, SEQ ID NO 43 (human, also: covalently linked to cellulose); assay: CelluSpots peptide array, chemiluminescence
T9 construct: Spot on the CelluSpots peptide array; also called F-Y-F-G-N-K-P-T-G-Y-G-S-S-S-R
T9 peptide: FYFGNKPTGYGSSSR
Experimental: as §1, §2

[10] = target: T10, SEQ ID NO 48 (human, also: covalently linked to cellulose); assay: CelluSpots peptide array, chemiluminescence
T10 construct: Spot on the CelluSpots peptide array; also called K-P-T-G-Y-G-S-S-S-R-R-A-P-Q-T
T10 peptide: KPTGYGSSSRRAPQT
Experimental: as §1, §2

[11] = target: T1, human insulin-like growth factor-1 …; assay: SPR (BIAcore T200), 25 C, antibody captured, antigen in solution
Experimental: (§3) The BIAcore T200 System was driven under the control software V1.1.1. Polyclonal rabbit IgG antibody <IgGFCγM>R (Jackson ImmunoResearch Laboratories Inc.) was immobilized at 30 μg/ml in 10 mM sodium acetate buffer (pH 4.5) at 6500 RU on the flow cells 1, 2, 3, and 4, respectively, via EDC/NHS chemistry according to the manufacturer's instructions. Finally, the sensor surface was blocked with a 1 M ethanolamine solution. The complete experiment was performed at 25° C.
(§4) The clone culture supernatants containing the respective antibodies at approx. 40 nM were captured for 2 min at a flow rate of 5 μl/min on the <IgGFCγM>R surface. As analytes in solution the recombinant native IGF-1 (Peprotech Inc. Cat.#100-11), recombinant native IGF-2 (Peprotech Inc. Cat.#100-12), Thermus thermophilus SlyD-IGF-1(74-90), recombinant wild-type Thermus thermophilus SlyD, recombinant Thermus thermophilus SlyD-ΔIF, recombinant wild-type Thermococcus gammadurans SlyD, recombinant Thermococcus gammadurans SlyD-IGF-2 (53-65) fusion polypeptides were used. Thermus thermophilus SlyD-ΔIF is solely the FKBP domain of Thermus thermophilus SlyD lacking the IF domain. Thermococcus gammadurans SlyD-IGF-2(53-65) was used to counterscreen and investigate the specificity for the IGF-1 hairpin in contrast to the IGF-2 hairpin insertion. The respective analytes were injected at different concentration steps from 90 nM, 30 nM, 10 nM, 3.3 nM, 1.1 nM and 0 nM. The association phase was monitored for 3 min. at a flow rate of 100 μl/min. The dissociation was monitored for 10 min. at a flow rate of 100 μl/min. The system was regenerated using a 10 mM glycine buffer (pH 1.7). Kinetics were evaluated using the BIAcore Evaluation Software.

[12] = target: T11, recombinant native IGF-2 (Peprotech Inc. Cat.#100-12) (human, UniProt P01344 25-91); assay: as above
T11 construct: The sentence on the bought protein names no species; also called insulin-like growth factor-2
Experimental: as §3, §4

[13] = target: T12, Thermococcus gammatolerans SlyD-IGF-2(53-65) fusion polypeptide; assay: as above
T12 construct: Human IGF-2 amino acids 53-65 inserted into the Thermococcus gammatolerans SlyD scaffold, with GS spacer and hexahistidine tag; also called Thermococcus gammadurans SlyD-IGF-2 (53-65)
T12 chain: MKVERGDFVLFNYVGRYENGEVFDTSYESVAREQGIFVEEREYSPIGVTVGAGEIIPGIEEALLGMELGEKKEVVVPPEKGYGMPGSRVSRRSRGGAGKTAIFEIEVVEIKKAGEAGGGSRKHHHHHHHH
Experimental: as §3, §4

[14] = target: T2, Thermus thermophilus wild type SlyD …; assay: as above
Experimental: as §3, §4

[15] = target: T13, Thermococcus gammatolerans wild-type SlyD polypeptide (Thermococcus gammatolerans); assay: as above
T13 construct: also called wild-type Thermococcus gammadurans SlyD; native SlyD from Thermococcus gammatolerans
T13 chain: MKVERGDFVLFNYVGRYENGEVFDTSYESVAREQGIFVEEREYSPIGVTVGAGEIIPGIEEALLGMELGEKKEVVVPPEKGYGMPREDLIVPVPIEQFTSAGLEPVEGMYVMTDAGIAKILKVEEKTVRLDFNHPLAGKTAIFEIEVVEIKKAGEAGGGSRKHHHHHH
Experimental: as §3, §4

Row | Binder | reactivity [mE] [1] | reactivity [mE] [2] | binding result [3] | binding result [4] | binding result [5] | binding result [6] | binding result [7] | binding result [8] | binding result [9] | binding result [10] | Kd [11] | koff [11] | kon [11] | t1/2-diss [11] | binding result [12] | binding result [13] | binding result [14] | binding result [15]
1 | MAb<h-IGF-1>M-11.11.17 (antibody, V domains shown, Mouse monoclonal IgG from a hybridoma, raised with Thermus thermophilus SlyD-IGF-1(74-90); also called MAb 11.11.17; mAb<IGF1>M-11.11.17) VH: QVQLQQSGAELVRPGSSVKISCKASGYAFSNLWMNWVKQRPGQGLEWIGQIYPGDGDTNYYGDFKGKATLTADSSSSTAYMQLSRLTSEDSAVYFCARIGYYGMDYWGQGTSVTVSS VL: DVVLTQTPLSLPVNIGDEASISCKSTKSLLSSDGLTYLDWYLQKPGQSPQVLIYLVSNRFSGVPDRFSGSGSGTDFTLKISRVEAEDLGVYYCFQSNYLPTFGAGTKLELK | 2430 mE | 32 mE | binds | binds | binds | binds | binds | binds | binds | binds | 0.01 nM | 2.1e-05 s⁻¹ | 2e+06 M⁻¹ s⁻¹ | 560 min | no binding (tested: 90 nM) | no binding (tested: 90 nM) | no binding (tested: 90 nM) | no binding (tested: 90 nM)
2 | MAb<h-IGF-1>M-10.07.09 (antibody, V domains shown, Mouse monoclonal antibody from a hybridoma, raised with Thermus thermophilus SlyD-IGF-1(74-90); In SPR it was captured from clone culture supernatant through anti-mouse IgG Fc; also called MAb 10.07.09; M-10.7.9) VH: QVQLQQSGAELVRPGSSVKISCKASGYAFSSYWMNWVKQRPGQGLEWIGQIYPGDGDTNHNGKFKGKATLTADKSSSTVYMQLSSLTSEDSAVYFCARSGDYYGKDYWGQGTTLTVSS VL: DIVLTQTPPSLPVNMGQKATISYKATKSLLNTDGYTYMHWNQQKPGQPPKLLIYLVSNRESGVPDRFSGSGSGTDFTLNINTVEEEDAATYYCHHSNELPHTFGAGTKLEIK | 2110 mE | – | – | – | – | – | – | – | – | – | 1.6 nM | 0.0015 s⁻¹ | 920000 M⁻¹ s⁻¹ | 8 min | – | – | – | –
